Source: patent US20240117018A1

Tests used:
Test in all cases: cell-based or functional assay
[1] = target: Q259.d2.17 Env pseudovirus (HIV-1)
[2] = target: 7030102001E5(Rev-) Env pseudovirus (HIV-1)
[3] = target: CNE30 Env pseudovirus (HIV-1)
[4] = target: Ce1172_H1 Env pseudovirus (HIV-1)
[5] = target: Q842.d12 Env pseudovirus (HIV-1)
[6] = target: ZM247v1(Rev-) Env pseudovirus (HIV-1)
[7] = target: CAAN5342.A2 Env pseudovirus (HIV-1)
[8] = target: 3415.v1.c1 Env pseudovirus (HIV-1)
[9] = target: CNE53 Env pseudovirus (HIV-1)
[10] = target: THRO4156.18 Env pseudovirus (HIV-1)
[11] = target: ZM249M.PL1 Env pseudovirus (HIV-1)
[12] = target: CAP45.2.00.G3 Env pseudovirus (HIV-1)
[13] = target: ZM214M.PL15 Env pseudovirus (HIV-1)
[14] = target: 1394C9G1(Rev-) Env pseudovirus (HIV-1)
[15] = target: ZM53M.PB12 Env pseudovirus (HIV-1)
[16] = target: 191955_A11 Env pseudovirus (HIV-1)
[17] = target: ZM135M.PL10a Env pseudovirus (HIV-1)
[18] = target: AC10.0.29 Env pseudovirus (HIV-1)
[19] = target: Du172.17 Env pseudovirus (HIV-1)
[20] = target: Q461.e2 Env pseudovirus (HIV-1)
[21] = target: Ce0393_C3 Env pseudovirus (HIV-1)
[22] = target: 246F C1G Env pseudovirus (HIV-1)
[23] = target: WEAU_d15_410_787 Env pseudovirus (HIV-1)
[24] = target: QH0692.42 Env pseudovirus (HIV-1)
[25] = target: Ce703010054_2A2 Env pseudovirus (HIV-1)
[26] = target: 0260.v5.c36 Env pseudovirus (HIV-1)
[27] = target: MuLV envelope (negative control pseudovirus) (MuLV)
[28] = target: Ce1086_B2 Env pseudovirus (HIV-1)
[29] = target: Ce1176_A3 Env pseudovirus (HIV-1)
[30] = target: 1012_11_TC21_3257 Env pseudovirus (HIV-1)
[31] = target: 3365.v2.c2 Env pseudovirus (HIV-1)
[32] = target: HIV-001428-2.42 Env pseudovirus (HIV-1)
[33] = target: 62357_14_D3_4589 Env pseudovirus (HIV-1)
[34] = target: Du422.1 Env pseudovirus (HIV-1)
[35] = target: MS208.A1 Env pseudovirus (HIV-1)
[36] = target: CNE20 Env pseudovirus (HIV-1)

B1: N49P22 (antibody, V domains shown)
V domain 1: HIQLLQSGPQVKKSGDTVRISCETSGYNFVDSRIHWVRQTPEKRLRWMGWINPLQGGVNYAPEFQGRIRMTRDTFIDTVYVDLSGLTPADTAYYYCARGIDGKSYPFHFWGHGTRVTVFS
V domain 2: RFALTQPASVSGSPGQTITITCAGGSVSWFHFPPGKTPRLIIYESSKRPSGVSPRFSGSQSGSTASLIISGLQSDDEGTYFCSILEFFGRGTLVTVLS
IC50 [1]: > 50 µg/mL | IC80 [1]: > 50 µg/mL | MPI [1]: 15 | IC50 [2]: > 50 µg/mL | IC80 [2]: > 50 µg/mL | MPI [2]: 21 | IC50 [3]: > 50 µg/mL | IC80 [3]: > 50 µg/mL | MPI [3]: 30 | IC50 [4]: > 50 µg/mL | IC80 [4]: > 50 µg/mL | MPI [4]: 0 | IC50 [5]: 0.079 µg/mL | IC80 [5]: 0.359 µg/mL | MPI [5]: 100 | IC50 [6]: > 50 µg/mL | IC80 [6]: > 50 µg/mL | MPI [6]: 11 | IC50 [7]: 0.425 µg/mL | IC80 [7]: 1.88 µg/mL | MPI [7]: 99 | IC50 [8]: 0.198 µg/mL | IC80 [8]: 1.41 µg/mL | MPI [8]: 96 | IC50 [9]: 0.779 µg/mL | IC80 [9]: 5.11 µg/mL | MPI [9]: 93 | IC50 [10]: > 50 µg/mL | IC80 [10]: > 50 µg/mL | MPI [10]: 32 | IC50 [11]: > 50 µg/mL | IC80 [11]: > 50 µg/mL | MPI [11]: 0 | IC50 [12]: > 50 µg/mL | IC80 [12]: > 50 µg/mL | MPI [12]: 0 | IC50 [13]: > 50 µg/mL | IC80 [13]: > 50 µg/mL | MPI [13]: 25 | IC50 [14]: > 50 µg/mL | IC80 [14]: > 50 µg/mL | MPI [14]: 35 | IC50 [15]: 1.2 µg/mL | IC80 [15]: 11.8 µg/mL | MPI [15]: 91 | IC50 [16]: > 50 µg/mL | IC80 [16]: > 50 µg/mL | MPI [16]: 9 | IC50 [17]: > 50 µg/mL | IC80 [17]: > 50 µg/mL | MPI [17]: 27 | IC50 [18]: > 50 µg/mL | IC80 [18]: > 50 µg/mL | MPI [18]: 0 | IC50 [19]: > 50 µg/mL | IC80 [19]: > 50 µg/mL | MPI [19]: 4 | IC50 [20]: 11.2 µg/mL | IC80 [20]: > 50 µg/mL | MPI [20]: 66 | IC50 [21]: > 50 µg/mL | IC80 [21]: > 50 µg/mL | MPI [21]: 12 | IC50 [22]: > 50 µg/mL | IC80 [22]: > 50 µg/mL | MPI [22]: 10 | IC50 [23]: 1.54 µg/mL | IC80 [23]: > 50 µg/mL | MPI [23]: 76 | IC50 [24]: 0.592 µg/mL | IC80 [24]: 2.02 µg/mL | MPI [24]: 100 | IC50 [25]: > 50 µg/mL | IC80 [25]: > 50 µg/mL | MPI [25]: 0 | IC50 [26]: 1.67 µg/mL | IC80 [26]: 14.4 µg/mL | MPI [26]: 93 | IC50 [27]: > 50 µg/mL | IC80 [27]: > 50 µg/mL | MPI [27]: 8 | IC50 [28]: > 50 µg/mL | IC80 [28]: > 50 µg/mL | MPI [28]: 0 | IC50 [29]: > 50 µg/mL | IC80 [29]: > 50 µg/mL | MPI [29]: 23 | IC50 [30]: 15.7 µg/mL | IC80 [30]: > 50 µg/mL | MPI [30]: 53 | IC50 [31]: 0.254 µg/mL | IC80 [31]: 0.857 µg/mL | MPI [31]: 98 | IC50 [32]: 0.73 µg/mL | IC80 [32]: 7.1 µg/mL | MPI [32]: 91 | IC50 [33]: > 50 µg/mL | IC80 [33]: > 50 µg/mL | MPI [33]: 13 | IC50 [34]: > 50 µg/mL | IC80 [34]: > 50 µg/mL | MPI [34]: 4 | IC50 [35]: > 50 µg/mL | IC80 [35]: > 50 µg/mL | MPI [35]: 17 | IC50 [36]: > 50 µg/mL | IC80 [36]: > 50 µg/mL | MPI [36]: 18

B2: N49P23 (antibody, V domains shown)
VH: QVRLVQSGAGARKTGASMKLSCSTSGYTFTTHHGHFINWVRQARGQGLEWMGWMNPMTGQMNIEGKFQGRVTLTRDIYSDTAYMEMTRLTTGDTGTYYCARGDFGQNYPFHYWGQGSLVIVSS
VL: LSALTQPASVSGSPGQSVTISCSGTNRYLVSWYQQHPDKAPKLIIYDDNKRPSGISDRFSASRPDDTASLTISGLQTGDEATYWCASYERFGGGTRLTVLS
IC50 [1]: 0.362 µg/mL | IC80 [1]: 7.79 µg/mL | MPI [1]: 91 | IC50 [2]: 0.172 µg/mL | IC80 [2]: 0.797 µg/mL | MPI [2]: 100 | IC50 [3]: 0.143 µg/mL | IC80 [3]: 0.68 µg/mL | MPI [3]: 100 | IC50 [4]: > 50 µg/mL | IC80 [4]: > 50 µg/mL | MPI [4]: 0 | IC50 [5]: 0.007 µg/mL | IC80 [5]: 0.022 µg/mL | MPI [5]: 100 | IC50 [6]: > 50 µg/mL | IC80 [6]: > 50 µg/mL | MPI [6]: 24 | IC50 [7]: 0.412 µg/mL | IC80 [7]: 1.38 µg/mL | MPI [7]: 100 | IC50 [8]: 0.054 µg/mL | IC80 [8]: 0.19 µg/mL | MPI [8]: 100 | IC50 [9]: 0.026 µg/mL | IC80 [9]: 0.095 µg/mL | MPI [9]: 100 | IC50 [10]: 1.98 µg/mL | IC80 [10]: 10.7 µg/mL | MPI [10]: 97 | IC50 [11]: > 50 µg/mL | IC80 [11]: > 50 µg/mL | MPI [11]: 2 | IC50 [12]: > 50 µg/mL | IC80 [12]: > 50 µg/mL | MPI [12]: 0 | IC50 [13]: 0.061 µg/mL | IC80 [13]: 0.614 µg/mL | MPI [13]: 100 | IC50 [14]: > 50 µg/mL | IC80 [14]: > 50 µg/mL | MPI [14]: 34 | IC50 [15]: 0.135 µg/mL | IC80 [15]: 0.651 µg/mL | MPI [15]: 100 | IC50 [16]: > 50 µg/mL | IC80 [16]: > 50 µg/mL | MPI [16]: 31 | IC50 [17]: > 50 µg/mL | IC80 [17]: > 50 µg/mL | MPI [17]: 36 | IC50 [18]: > 50 µg/mL | IC80 [18]: > 50 µg/mL | MPI [18]: 0 | IC50 [19]: > 50 µg/mL | IC80 [19]: > 50 µg/mL | MPI [19]: 45 | IC50 [20]: 0.099 µg/mL | IC80 [20]: 0.464 µg/mL | MPI [20]: 100 | IC50 [21]: > 50 µg/mL | IC80 [21]: > 50 µg/mL | MPI [21]: 29 | IC50 [22]: > 50 µg/mL | IC80 [22]: > 50 µg/mL | MPI [22]: 11 | IC50 [23]: 0.009 µg/mL | IC80 [23]: 0.031 µg/mL | MPI [23]: 100 | IC50 [24]: 0.557 µg/mL | IC80 [24]: 2.51 µg/mL | MPI [24]: 100 | IC50 [25]: > 50 µg/mL | IC80 [25]: > 50 µg/mL | MPI [25]: 35 | IC50 [26]: 0.261 µg/mL | IC80 [26]: 0.919 µg/mL | MPI [26]: 100 | IC50 [27]: > 50 µg/mL | IC80 [27]: > 50 µg/mL | MPI [27]: 9 | IC50 [28]: 0.063 µg/mL | IC80 [28]: 0.303 µg/mL | MPI [28]: 100 | IC50 [29]: 0.297 µg/mL | IC80 [29]: 1.38 µg/mL | MPI [29]: 100 | IC50 [30]: 0.013 µg/mL | IC80 [30]: 0.085 µg/mL | MPI [30]: 100 | IC50 [31]: 0.017 µg/mL | IC80 [31]: 0.053 µg/mL | MPI [31]: 100 | IC50 [32]: 0.036 µg/mL | IC80 [32]: 0.241 µg/mL | MPI [32]: 98 | IC50 [33]: 0.057 µg/mL | IC80 [33]: 0.76 µg/mL | MPI [33]: 95 | IC50 [34]: > 50 µg/mL | IC80 [34]: > 50 µg/mL | MPI [34]: 4 | IC50 [35]: 0.048 µg/mL | IC80 [35]: 0.279 µg/mL | MPI [35]: 100 | IC50 [36]: 45.4 µg/mL | IC80 [36]: > 50 µg/mL | MPI [36]: 51
